From IntAct's records for PubMed 24855949

B1: Ankyrin repeat domain-containing protein 49 (Homo sapiens), Q8WVL7 (parent)
chain: MEKEKGNDDGIPDQENSLDFSEHFNQLELLETHGHLIPTGTQSLWVGNSDEDEEQDDKNEEWYRLQEKKMEKDPSRLLLWAAEKNRLTTVRRLLSEKATHVNTRDEDEYTPLHRAAYSGHLDIVQELIAQGADVHAVTVDGWTPLHSACKWNNTRVASFLLQHDADINAQTKGLLTPLHLAAGNRDSKDTLELLLMNRYVKPGLKNNLEETAFDIARRTSIYHYLFEIVEGCTNSSPQS
B2: Cyclin-dependent kinase inhibitor 2A (Homo sapiens), P42771 (parent)
chain: MEPAAGSSMEPSADWLATAAARGRVEEVRALLEAGALPNAPNSYGRRPIQVMMMGSARVAELLLLHGAEPNCADPATLTRPVHDAAREGFLDTLVVLHRAGARLDVRDAWGRLPVDLAEELGHRDVARYLRAAAGGTRGSNHARIDAAEGPSDIPD
B3: NF-kappa-B inhibitor alpha (Gallus gallus (Chicken)), Q91974 (parent)
chain: MLSAHRPAEPPAVEGCEPPRKERQGGLLPPDDRHDSGLDSMKEEEYRQLVRELEDIRLQPREPPARPHAWAQQLTEDGDTFLHLAIIHEEKALSLEVIRQAAGDAAFLNFQNNLSQTPLHLAVITDQAEIAEHLLKAGCDLDVRDFRGNTPLHIACQQGSLRSVSVLTQHCQPHHLLAVLQATNYNGHTCLHLASIQGYLAVVEYLLSLGADVNAQEPCNGRTALHLAVDLQNSDLVSLLVKHGPDVNKVTYQGYSPYQLTWGRDNASIQEQLKLLTTADLQILPESEDEESSESEPEFTEDELMYDDCCIGGRQLTF

Variants of: B1
Details: with ran_human RAN

effect of a mutation on the interaction | Variant
increasing interaction strength | MEKEKGNDDGIPDQENSLDFSEHFNQLELLETHGHLIPTGTQSLWVGNSDEDEEQDDKNEEWYRLQEKKMEKDPSRLLLWAAEKNRLTTVRRLLSEKATHVNTRDEDEYTPLHRAAYSGHLDIVQELIAQGADVHAVTVDGWTPLHSACKWNNTRVASFLLQHDADINAQTKGLLTPLHLAACNRDSKDTLELLLMNRYVKPGLKNNLEETAFDIARRTSIYHYLFEIVEGCTNSSPQS [G183C]
increasing interaction strength | MEKEKGNDDGIPDQENSLDFSEHFNQLELLETHGHLIPTGTQSLWVGNSDEDEEQDDKNEEWYRLQEKKMEKDPSRLLLWAAEKNRLTTVRRLLSEKATHVNTRDEDEYTPLHRAAYSGHLDIVQELIAQGADVHAVTVDGWTPLHSACIWNNTRVASFLLQHDADINAQTKGLLTPLHLAAGNRDSKDTLELLLMNRYVKPGLKNNLEETAFDIARRTSIYHYLFEIVEGCTNSSPQS [K150I]

The next lines start with the variant.

Variant | effect of a mutation on the interaction
MEKEKGNDDGIPDQENSLDFSEHFNQLELLETHGHLIPTGTQSLWVGNSDEDEEQDDKNEEWYRLQEKKMEKDPSRLLLWAAEKNRLTTVRRLLSEKATHVNTRDECEYTPLHRAAYSGHLDIVQELIAQGADVHAVTVDGWTPLHSACCWNNTRVASFLLQHDADINAQTKGLLTPLHLAACNRDSKDTLELLLMNRYVKPGLKNNLEETAFDIARRTSIYHYLFEIVEGCTNSSPQS [D107C;K150C;G183C] | increasing interaction strength
MEKEKGNDDGIPDQENSLDFSEHFNQLELLETHGHLIPTGTQSLWVGNSDEDEEQDDKNEEWYRLQEKKMEKDPSRLLLWAAEKNRLTTVRRLLSEKATHVNTRDEIEYTPLHRAAYSGHLDIVQELIAQGADVHAVTVDGWTPLHSACIWNNTRVASFLLQHDADINAQTKGLLTPLHLAAGNRDSKDTLELLLMNRYVKPGLKNNLEETAFDIARRTSIYHYLFEIVEGCTNSSPQS [D107I;K150I] | increasing interaction strength
MEKEKGNDDGIPDQENSLDFSEHFNQLELLETHGHLIPTGTQSLWVGNSDEDEEQDDKNEEWYRLQEKKMEKDPSRLLLWAAEKNRLTTVRRLLSEKATHVNTRDECEYTPLHRAAYSGHLDIVQELIAQGADVHAVTVDGWTPLHSACCWNNTRVASFLLQHDADINAQTKGLLTPLHLAAGNRDSKDTLELLLMNRYVKPGLKNNLEETAFDIARRTSIYHYLFEIVEGCTNSSPQS [D107C;K150C] | increasing interaction strength

Variants of: B2
Details: with ran_human RAN

effect of a mutation on the interaction | Variant
disrupting interaction strength | M53I
disrupting interaction strength | R87P

Variants of: B2
Details: with cdk4_human CDK4, P11802
cdk4_human CDK4, P11802, sequence (P11802 whole entry): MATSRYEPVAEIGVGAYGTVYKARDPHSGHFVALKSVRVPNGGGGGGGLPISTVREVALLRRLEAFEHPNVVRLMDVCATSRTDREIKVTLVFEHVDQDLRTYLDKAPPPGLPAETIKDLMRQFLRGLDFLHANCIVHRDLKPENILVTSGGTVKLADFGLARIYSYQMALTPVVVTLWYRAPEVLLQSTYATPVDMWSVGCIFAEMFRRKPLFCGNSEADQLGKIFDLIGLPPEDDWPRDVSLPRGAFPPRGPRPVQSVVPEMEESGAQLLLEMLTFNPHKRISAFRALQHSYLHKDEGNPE

effect of a mutation on the interaction | Variant
increasing interaction strength | M53I
increasing interaction strength | R87P

Variants of: B2
Details: with ccnd1_human CCND1, P24385
ccnd1_human CCND1, P24385, sequence (P24385 whole entry): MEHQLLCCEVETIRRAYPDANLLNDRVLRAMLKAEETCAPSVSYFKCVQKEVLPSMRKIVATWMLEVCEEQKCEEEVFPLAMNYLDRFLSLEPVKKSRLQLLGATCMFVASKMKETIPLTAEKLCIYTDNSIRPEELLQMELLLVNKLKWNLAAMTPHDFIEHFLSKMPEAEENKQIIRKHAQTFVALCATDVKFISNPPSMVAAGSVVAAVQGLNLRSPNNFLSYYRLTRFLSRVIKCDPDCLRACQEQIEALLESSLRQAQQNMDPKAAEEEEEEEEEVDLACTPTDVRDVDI

effect of a mutation on the interaction | Variant
increasing interaction strength | M53I
disrupting interaction strength | R87P

Variants of: B2
Details: with cdk6_human CDK6, Q00534
cdk6_human CDK6, Q00534, sequence (Q00534 whole entry): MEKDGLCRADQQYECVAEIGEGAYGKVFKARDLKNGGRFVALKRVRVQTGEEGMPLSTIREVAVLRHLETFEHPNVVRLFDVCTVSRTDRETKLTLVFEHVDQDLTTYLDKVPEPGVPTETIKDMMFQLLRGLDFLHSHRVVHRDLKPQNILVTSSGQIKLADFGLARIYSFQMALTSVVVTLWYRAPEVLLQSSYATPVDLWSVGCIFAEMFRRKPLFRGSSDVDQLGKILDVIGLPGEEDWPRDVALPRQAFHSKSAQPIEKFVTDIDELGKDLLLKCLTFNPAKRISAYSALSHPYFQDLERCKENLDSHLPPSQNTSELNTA

effect of a mutation on the interaction | Variant
increasing interaction strength | M53I
increasing interaction strength | R87P

Variants of: B2
Details: with ran_human RAN
Remark: another data set of the same source

effect of a mutation on the interaction | Variant
increasing interaction strength | M53I
increasing interaction strength | R87P

Variants of: B2
Details: with cdk4_human CDK4, P11802
Remark: another data set of the same source

effect of a mutation on the interaction | Variant
decreasing interaction strength | R87P

Variants of: B2
Details: with cdk6_human CDK6, Q00534
Remark: another data set of the same source

effect of a mutation on the interaction | Variant
decreasing interaction strength | R87P

Variants of: B3
Details: with ran_human RAN

effect of a mutation on the interaction | Variant
decreasing interaction strength | MLSAHRPAEPPAVEGCEPPRKERQGGLLPPDDRHDSGLDSMKEEEYRQLVRELEDIRLQPREPPARPHAWAQQLTEDGDTFLHLAIIHEEKALSLEVIRQAAGDAAFLNFQNNLSQTPLHLAVQTDQAEIAEHLLKAGCDLDVRDFRGNTPLHIACQQGSLRSVSVLTQHCQPHHLLAVLQATNYNGHTCLHLASIQGYLAVVEYLLSLGADVNAQEPCNGRTALHLAVDLQNSDLVSLLVKHGPDVNKVTYQGYSPYQLTWGRDNASIQEQLKLLTTADLQILPESEDEESSESEPEFTEDELMYDDCCIGGRQLTF [I124Q]
decreasing interaction strength | MLSAHRPAEPPAVEGCEPPRKERQGGLLPPDDRHDSGLDSMKEEEYRQLVRELEDIRLQPREPPARPHAWAQQLTEDGDTFLHLAIIHEEKALSLEVIRQAAGDAAFLNFQNNLSQTPLHLAVRTDQAEIAEHLLKAGCDLDVRDFRGNTPLHIACQQGSLRSVSVLTQHCQPHHLLAVLQATNYNGHTCLHLASIQGYLAVVEYLLSLGADVNAQEPCNGRTALHLAVDLQNSDLVSLLVKHGPDVNKVTYQGYSPYQLTWGRDNASIQEQLKLLTTADLQILPESEDEESSESEPEFTEDELMYDDCCIGGRQLTF [I124R]
decreasing interaction strength | MLSAHRPAEPPAVEGCEPPRKERQGGLLPPDDRHDSGLDSMKEEEYRQLVRELEDIRLQPREPPARPHAWAQQLTEDGDTFLHLAIIHEEKALSLEVIRQAAGDAAFLNFQNNLSQTPLHLAVKTDQAEIAEHLLKAGCDLDVRDFRGNTPLHIACQQGSLRSVSVLTQHCQPHHLLAVLQATNYNGHTCLHLASIQGYLAVVEYLLSLGADVNAQEPCNGRTALHLAVDLQNSDLVSLLVKHGPDVNKVTYQGYSPYQLTWGRDNASIQEQLKLLTTADLQILPESEDEESSESEPEFTEDELMYDDCCIGGRQLTF [I124K]

Further lines, the variant ahead of its results:

Variant | effect of a mutation on the interaction
MLSAHRPAEPPAVEGCEPPRKERQGGLLPPDDRHDSGLDSMKEEEYRQLVRELEDIRLQPREPPARPHAWAQQLTEDGDTFLHLAIIHEEKALSLEVIRQAAGDAAFLNFQNNLSQTPLHLAVATDQAEIAEHLLKAGCDLDVRDFRGNTPLHIACQQGSLRSVSVLTQHCQPHHLLAVLQATNYNGHTCLHLASIQGYLAVVEYLLSLGADVNAQEPCNGRTALHLAVDLQNSDLVSLLVKHGPDVNKVTYQGYSPYQLTWGRDNASIQEQLKLLTTADLQILPESEDEESSESEPEFTEDELMYDDCCIGGRQLTF [I124A] | decreasing interaction strength
MLSAHRPAEPPAVEGCEPPRKERQGGLLPPDDRHDSGLDSMKEEEYRQLVRELEDIRLQPREPPARPHAWAQQLTEDGDTFLHLAIIHEEKALSLEVIRQAAGDAAFLNFQNNLSQTPLHLAVETDQAEIAEHLLKAGCDLDVRDFRGNTPLHIACQQGSLRSVSVLTQHCQPHHLLAVLQATNYNGHTCLHLASIQGYLAVVEYLLSLGADVNAQEPCNGRTALHLAVDLQNSDLVSLLVKHGPDVNKVTYQGYSPYQLTWGRDNASIQEQLKLLTTADLQILPESEDEESSESEPEFTEDELMYDDCCIGGRQLTF [I124E] | decreasing interaction strength
